{"source": "patent US20050238642A1", "about": "“Modified bouganin proteins, cytotoxins and methods and uses thereof” (priority 2004, published 2005)", "molecules": {"B1": {"name": "VB6-845 (Fab)", "chain 1": "EVQLVQSGPGLVQPGGSVRISCAASGYTFTNYGMNWVKQAPGKGLEWMGWINTYTGESTYADSFKGRFTFSLDTSASAAYLQINSLRAEDTAVYYCARFAIKGDYWGQGTLLTVSSASTKGPSVFPLAPSSKSTSGGTAALGCLVKDYFPEPVTVSWNSGALTSGVHTFPAVLQSSGLYSLSSVVTVPSSSLGTQTYICNVNHKPSNTKVDKKVEPKSCTRHRQPRGWEQLYNTVSFNLGEAYEYPTFIQDLRNELAKGTPVCQLPVTLQTIADDKRFVLVDITTTSKKTVKVAIDVTDVYVVGYQDKWDGKDRAVFLDKVPTVATSKLFPGVTNRVTLTFDGSYQKLVNAAKADRKALELGVNKLEFSIEAIHGKTINGQEAAKFFLIVIQMVSEAARFKYIETEVVDRGLYGSFKPNFKVLNLENNWGDISDAIHKSSPQCTTINPALQLISPSNDPWVVNKVSQISPDMGILKFKSSK", "chain 2": "HHHHHHDIQMTQSPSSLSASVGDRVTITCRSTKSLLHSNGITYLYWYQQKPGKAPKLLIYQMSNLASGVPSRFSSSGSGTDFTLTISSLQPEDFATYYCAQNLEIPRTFGQGTKVELKRTVAAPSVFIFPPSDEQLKSGTASVVCLLNNFYPREAKVQWKVDNALQSGNSQESVTEQDSKDSTYSLSSTLTLSKADYEKHKVYACEVTHQGLSSPVTKSFNRGEC", "notes": "also called Fab anti-Ep-CAM-de-bouganin (Bou156) construct"}, "B2": {"name": "scFv 845: the Ep-CAM antibody of VB6-845, head prints scFv 845 (IgG) (antibody, chains of the INN, looked up, V domains shown)", "VH": "EVQLVQSGPGLVQPGGSVRISCAASGYTFTNYGMNWVKQAPGKGLEWMGWINTYTGESTYADSFKGRFTFSLDTSASAAYLQINSLRAEDTAVYYCARFAIKGDYWGQGTLLTVSS", "VL": "DIQMTQSPSSLSASVGDRVTITCRSTKSLLHSNGITYLYWYQQKPGKAPKLLIYQMSNLASGVPSRFSSSGSGTDFTLTISSLQPEDFATYYCAQNLEIPRTFGQGTKVELK", "modifications": "scFv"}, "B3": {"name": "VB6-845-CL-de-bouganin: Fab anti-Ep-CAM de-bouganin construct, Bou156 linked at the C-terminus of the CL domain (protein)", "chain 1": "HHHHHHEVQLVQSGPGLVQPGGSVRISCAASGYTFTNYGMNWVKQAPGKGLEWMGWINTYTGESTYADSFKGRFTFSLDTSASAAYLQINSLRAEDTAVYYCARFAIKGDYWGQGTLLTVSSASTKGPSVFPLAPSSKSTSGGTAALGCLVKDYFPEPVTVSWNSGALTSGVHTFPAVLQSSGLYSLSSVVTVPSSSLGTQTYICNVNHKPSNTKVDKKVEPKSC", "chain 2": "DIQMTQSPSSLSASVGDRVTITCRSTKSLLHSNGITYLYWYQQKPGKAPKLLIYQMSNLASGVPSRFSSSGSGTDFTLTISSLQPEDFATYYCAQNLEIPRTFGQGTKVELKRTVAAPSVFIFPPSDEQLKSGTASVVCLLNNFYPREAKVQWKVDNALQSGNSQESVTEQDSKDSTYSLSSTLTLSKADYEKHKVYACEVTHQGLSSPVTKSFNRGECTRHRQPRGWEQLYNTVSFNLGEAYEYPTFIQDLRNELAKGTPVCQLPVTLQTIADDKRFVLVDITTTSKKTVKVAIDVTDVYVVGYQDKWDGKDRAVFLDKVPTVATSKLFPGVTNRVTLTFDGSYQKLVNAAKADRKALELGVNKLEFSIEAIHGKTINGQEAAKFFLIVIQMVSEAARFKYIETEVVDRGLYGSFKPNFKVLNLENNWGDISDAIHKSSPQCTTINPALQLISPSNDPWVVNKVSQISPDMGILKFKSSK"}}, "key": {"[1]": {"biological_target": "T1, Ep-CAM (Epithelial Cell Adhesion Molecule) (human, UniProt P16422 24-314)", "T1 construct": "whole, on cells; also called 17-1A; KSA", "T1 sequence": "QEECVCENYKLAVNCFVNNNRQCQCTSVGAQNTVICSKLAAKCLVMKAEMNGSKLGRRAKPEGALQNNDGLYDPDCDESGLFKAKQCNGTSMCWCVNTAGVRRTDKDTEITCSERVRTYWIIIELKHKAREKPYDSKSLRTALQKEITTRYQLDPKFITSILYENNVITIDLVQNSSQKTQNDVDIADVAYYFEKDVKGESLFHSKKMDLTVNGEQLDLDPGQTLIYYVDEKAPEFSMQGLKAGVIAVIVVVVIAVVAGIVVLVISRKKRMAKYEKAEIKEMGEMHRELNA", "assay": "flow cytometry, 10 µg/mL VB6-845 on SK-OV-3 cells (ovarian), anti-His detection; ± SEM"}, "[2]": {"biological_target": "T1, Ep-CAM (Epithelial Cell Adhesion …)", "assay": "flow cytometry, 10 µg/mL VB6-845 on SK-UT-1 cells (endometrial; Ep-CAM status of the line not stated), anti-His detection; ± SEM"}, "[3]": {"biological_target": "T1, Ep-CAM (Epithelial Cell Adhesion …)", "assay": "flow cytometry, 10 µg/mL VB6-845 on C-33A cells (cervical; Ep-CAM status of the line not stated), anti-His detection; ± SEM"}, "[4]": {"biological_target": "T1, Ep-CAM (Epithelial Cell Adhesion …)", "assay": "flow cytometry, 10 µg/mL VB6-845 on RL95-2 cells (endometrial), anti-His detection; ± SEM"}, "[5]": {"biological_target": "T1, Ep-CAM (Epithelial Cell Adhesion …)", "assay": "flow cytometry, 10 µg/mL VB6-845 on TOV-112G cells (ovarian; Ep-CAM status of the line not stated), anti-His detection; ± SEM"}, "[6]": {"biological_target": "T1, Ep-CAM (Epithelial Cell Adhesion …)", "assay": "flow cytometry, 10 µg/mL VB6-845 on C-4 I cells (cervical), anti-His detection; ± SEM"}, "[7]": {"biological_target": "T1, Ep-CAM (Epithelial Cell Adhesion …)", "assay": "cell-based or functional assay"}, "[8]": {"biological_target": "T1, Ep-CAM (Epithelial Cell Adhesion …)", "assay": "cell-based or functional assay", "remark": "listed apart in the source"}, "[9]": {"biological_target": "T1, Ep-CAM (Epithelial Cell Adhesion …)", "assay": "flow cytometry, 10 µg/mL VB6-845 on HT-3 cells (cervical), anti-His detection; ± SEM"}, "[10]": {"biological_target": "T1, Ep-CAM (Epithelial Cell Adhesion …)", "assay": "flow cytometry, 10 µg/mL VB6-845 on NIH:OVCAR-3 cells (ovarian, Ep-CAM-positive), anti-His detection; ± SEM"}, "[11]": {"biological_target": "T1, Ep-CAM (Epithelial Cell Adhesion …)", "assay": "flow cytometry, 10 µg/mL VB6-845 on HEC-1-A cells (endometrial), anti-His detection; ± SEM"}, "tumor cell lines": {"tested_on": "tumor cell lines", "assay": "VB6-845 Tumor Cell Indications: binding for scFv 845 to tumor cell lines (median fluorescence)", "source_text": "Tumor-targeting cytotoxins are composed of the variable region of an antibody linked to a bacterial, fungal or plant toxin. The present study illustrates that the deimmunized bouganin constructs of the invention, comprising deimmunized bouganin linked to a targeting moiety have reduced immunogenicity, while still retaining their biological activity."}, "CAL 27": {"tested_on": "CAL 27", "assay": "Flow cytometry reactivity test (Example 7)", "assay_type": "binding", "details": "Ep-CAM positive cell line CAL 27", "method": "(§1) The flow cytometry tests were conducted by incubating the constructs or control with 0.45×10^6 cells for an hour on ice. After washing, cell surface bound constructs were detected with a rabbit anti-bouganin (for FIG. 10A) or mouse anti-His tag (FIG. 10B) for an hour on ice. The cells were washed and incubated with FITC-conjugated sheep anti-rabbit IgG (FIG. 10A) and FITC-conjugated sheep anti-mouse (IgG) (FIG. 10B) for 30 minutes on ice. Subsequently the cells were washed, resuspended in PBS 5% FCS containing propidium iodide for assessment of antibody binding by flow cytometry."}, "NIH:OVCAR-3": {"tested_on": "NIH:OVCAR-3", "assay": "Flow cytometry reactivity test (Example 7)", "assay_type": "binding", "details": "Ep-CAM positive cell line NIH:OVCAR-3", "method": "as §1"}, "A-375": {"tested_on": "A-375", "assay": "Flow cytometry reactivity test (Example 7)", "assay_type": "binding", "details": "Ep-CAM-negative cell line A-375", "method": "as §1"}}}
{"molecule": "B1", "values": [{"measurement": "fold-increase in MF", "setting": "[1]", "value": 4.3, "unit": "fold"}, {"measurement": "fold-increase in MF", "setting": "[2]", "value": 1.1, "unit": "fold"}, {"measurement": "fold-increase in MF", "setting": "[3]", "value": 1.1, "unit": "fold"}, {"measurement": "fold-increase in MF", "setting": "[4]", "value": 4.9, "unit": "fold"}, {"measurement": "fold-increase in MF", "setting": "[5]", "value": 1.1, "unit": "fold"}, {"measurement": "fold-increase in MF", "setting": "[6]", "value": 6.8, "unit": "fold"}, {"measurement": "IC50 nM, MTS cytotoxicity assay, NIH:OVCAR-3 cells (VB6-845 90% pure)", "setting": "[7]", "value": 1, "unit": "nM"}, {"measurement": "IC50 nM, MTS cytotoxicity assay, C-4 I cells (VB6-845 70% pure)", "setting": "[8]", "value": 1.7, "unit": "nM"}, {"measurement": "IC50 nM, MTS cytotoxicity assay, Caov-3 cells (VB6-845 70% pure)", "setting": "[8]", "value": 1.3, "unit": "nM"}, {"measurement": "IC50 nM, MTS cytotoxicity assay, HEC-1-A cells (VB6-845 70% pure)", "setting": "[8]", "value": 43, "unit": "nM"}, {"measurement": "IC50 nM, MTS cytotoxicity assay, HT-3 cells (VB6-845 70% pure)", "setting": "[8]", "value": 23, "unit": "nM"}, {"measurement": "IC50 nM, MTS cytotoxicity assay, KLE cells (VB6-845 70% pure)", "setting": "[8]", "value": "> 100", "unit": "nM"}, {"measurement": "IC50 nM, MTS cytotoxicity assay, ME-180 cells (VB6-845 70% pure)", "setting": "[8]", "value": 37, "unit": "nM"}, {"measurement": "IC50 nM, MTS cytotoxicity assay, MS751 cells (VB6-845 70% pure)", "setting": "[8]", "value": 0.43, "unit": "nM"}, {"measurement": "IC50 nM, MTS cytotoxicity assay, NIH-OVCAR-3 cells (VB6-845 70% pure)", "setting": "[8]", "value": 3.4, "unit": "nM"}, {"measurement": "IC50 nM, MTS cytotoxicity assay, RL95-2 cells (VB6-845 70% pure)", "setting": "[8]", "value": 100, "unit": "nM"}, {"measurement": "IC50 nM, MTS cytotoxicity assay, SK-OV-3 cells (VB6-845 70% pure)", "setting": "[8]", "value": "> 100", "unit": "nM"}, {"measurement": "fold-increase in MF", "setting": "[9]", "value": 29.1, "unit": "fold"}, {"measurement": "fold-increase in MF", "setting": "[10]", "value": 33.6, "unit": "fold"}, {"measurement": "fold-increase in MF", "setting": "[11]", "value": 42.3, "unit": "fold"}]}
{"molecule": "B2", "values": [{"measurement": "Binding for scFv 845 (IgG): mean fold-increase in median fluorescence over the control antibody", "setting": "tumor cell lines; Bladder, 14 cell lines", "value": 59.6, "unit": "fold"}, {"measurement": "Binding for scFv 845 (IgG): mean fold-increase in median fluorescence over the control antibody", "setting": "tumor cell lines; Cervical, 3 cell lines", "value": 37.5, "unit": "fold"}, {"measurement": "Binding for scFv 845 (IgG): mean fold-increase in median fluorescence over the control antibody", "setting": "tumor cell lines; Endometrial, 1 cell line", "value": 23.8, "unit": "fold"}, {"measurement": "Binding for scFv 845 (IgG): mean fold-increase in median fluorescence over the control antibody", "setting": "tumor cell lines; Esophageal, 3 cell lines", "value": 72.4, "unit": "fold"}, {"measurement": "Binding for scFv 845 (IgG): mean fold-increase in median fluorescence over the control antibody", "setting": "tumor cell lines; Gastric, 3 cell lines", "value": 148.9, "unit": "fold"}, {"measurement": "Binding for scFv 845 (IgG): mean fold-increase in median fluorescence over the control antibody", "setting": "tumor cell lines; Head and Neck, 2 cell lines", "value": 11.4, "unit": "fold"}, {"measurement": "Binding for scFv 845 (IgG): mean fold-increase in median fluorescence over the control antibody", "setting": "tumor cell lines; Kidney, 3 cell lines", "value": 9.4, "unit": "fold"}, {"measurement": "Binding for scFv 845 (IgG): mean fold-increase in median fluorescence over the control antibody", "setting": "tumor cell lines; Lung, 3 cell lines", "value": 16.4, "unit": "fold"}, {"measurement": "Binding for scFv 845 (IgG): mean fold-increase in median fluorescence over the control antibody", "setting": "tumor cell lines; Melanoma, 3 cell lines", "value": 1.6, "unit": "fold"}, {"measurement": "Binding for scFv 845 (IgG): mean fold-increase in median fluorescence over the control antibody", "setting": "tumor cell lines; Ovarian, 2 cell lines", "value": 84.1, "unit": "fold"}, {"measurement": "Binding for scFv 845 (IgG): mean fold-increase in median fluorescence over the control antibody", "setting": "tumor cell lines; Pancreas, 3 cell lines", "value": 5.5, "unit": "fold"}, {"measurement": "Binding for scFv 845 (IgG): mean fold-increase in median fluorescence over the control antibody", "setting": "tumor cell lines; Prostate, 5 cell lines", "value": 50.1, "unit": "fold"}]}
{"molecule": "B3", "values": [{"measurement": "shift in median fluorescence", "setting": "CAL 27", "value": "marked shift in median fluorescence"}, {"measurement": "shift in median fluorescence", "setting": "NIH:OVCAR-3", "value": "marked shift in median fluorescence"}, {"measurement": "shift in median fluorescence", "setting": "A-375", "value": "No shift in median fluorescence"}]}
